Measurements: patent US20100166704

Columns and labels:
GST-TIAR RRM2 = assay: EMSA; conditions: SD ±5 nM, four experiments; relative Kd; n about 1.2
GST-TIA-1 RRM2 = assay: EMSA; conditions: SD ±15 nM, four experiments; relative Kd; n about 1.1

Q: Which Kd (GST-TIAR RRM2) does the source give for “WNV 3'(-) SL RNA (75 nt 3' terminal minus-strand)” here?
A: 15 nM

Q: And the Kd (GST-TIA-1 RRM2)?
A: 112 nM
